Measured values: the supplement of paper PMC10567573

B1: FAM46C (parent)
chain: FDHLQNRLIATKNPEEIRGGGLLK

Variants of: B1
Assay: protein stability index of a GFP-peptide fusion (GPS, HEK-293T) (PSI 1-6); higher = more stable
Conditions: c terminus: a fixed tail appended
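Further: lentivirally expressed fusions sorted by FACS into six bins by GFP to DsRed ratio, PSI derived from sequencing read proportions per bin multiplied by bin number.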

Protein stability index of substitutions, site by site:
I17: N 4.27 | W 3.44 | A 4.4 | Y 3.58 | F 3.46 | H 4.28 | M 3.82 | D 4.52 | E 4.26 | Q 4.86 | P 3.55 | R 3.86
K12: H 3.1 | V 4.38 | L 2.65 | Q 3.61 | G 4 | E 3.71 | P 4.24 | F 2.59 | N 3.82 | Y 3.24 | M 3.37
F1: W 3.76 | T 4.28 | V 4.67 | G 3.9 | C 2.3 | Q 4.74 | M 4.39 | H 4.47 | Y 3.27 | N 4.4 | I 3.5 | D 5.18 | P 4.59 | L 4.51 | E 4.33
H3: W 2.99 | E 4.28 | P 4 | D 4.52 | S 3.17 | Q 3.51 | F 2.06 | G 3.79 | I 3.59 | L 3.25 | A 3.72 | R 3.73 | C 3.63 | N 3.05 | M 3.71 | V 3.87
R18: D 4.42 | A 3.75 | V 3.64 | C 4.44 | I 3.32 | E 4.67 | T 3.2 | L 3.39 | P 4.26 | S 3.77 | Q 4.37 | F 2.98 | K 4.05 | W 2.58 | Y 3.58
Q5: P 3.63 | V 3.33 | K 3.67 | R 2.86 | W 1.08 | I 3.17 | E 3.82 | N 3.44 | C 3.96 | L 2.17 | F 3.27 | S 4 | M 2.92 | T 3.99 | A 4.57
L4: V 3.54 | N 4.14 | W 3.8 | D 4.02 | Q 4.47 | H 4.79 | P 4.62 | G 5.22 | A 3.78 | T 4.27 | R 4.28 | S 4.8 | I 3.24
R7: H 4.35 | C 3.37 | P 4.07 | K 4.19 | V 3.43 | Q 3.64 | Y 2.99 | F 3.82 | M 3.54 | D 4.65 | I 3.67 | L 2.94 | E 4.55 | A 4.42
L8: G 4.39 | T 4.34 | Q 5.05 | M 3.99 | R 3.72 | K 4.16 | A 4.43 | E 5.03 | N 4.45 | Y 4.4 | W 4 | P 4.72 | S 4.62 | F 3.23 | I 3.66 | C 4.03
G21: P 3.91 | I 2.92 | S 4.06 | C 3.29 | T 4.07 | K 4.26 | R 3.47 | M 3.25 | Y 3.21 | A 3.69 | D 4 | F 2.82 | N 4.51 | H 3.94 | Q 3.41 | W 2.28 | L 2.61 | V 3.53
N6: G 3.03 | S 3.31 | I 2.56 | F 2.38 | P 4.46 | A 3.58 | K 3.81 | T 1.91 | Q 4.1 | V 2.55 | Y 2.95 | E 3.87 | M 3.32
K24: V 2.29 | N 3.52 | Y 1.93 | C 2.28 | M 3.11 | H 3.07 | G 3.52 | E 3.79 | W 1.95 | L 2.18 | Q 3.27 | T 3.45 | S 2.9 | I 1.96
A10: E 4 | G 3.52 | L 2.57 | V 3.38 | K 3.49 | I 2.71 | D 4.49 | N 4.07 | P 4.52 | C 3.46
I9: H 3.05 | D 3.5 | A 4.86 | M 3.58 | Q 4.57 | C 4.43 | R 4.05 | Y 3.56 | K 4.27 | T 4.4 | S 3.98 | G 4.3
L22: V 4.14 | Y 3.78 | M 4 | Q 4.06 | K 4.46 | D 4.71 | G 4.02 | R 3.98 | S 4.32 | A 4.86 | C 3.78 | H 4.2 | P 4.2
G19: L 2.57 | I 3.18 | Y 3.25 | H 3.99 | A 3.48 | Q 3.74 | C 3.57 | W 1.74 | R 4.27 | T 4.01 | P 3.29 | E 4.04 | M 2.61 | S 3.69 | K 4.26
E15: L 2.78 | K 3.25 | G 2.99 | W 2.63 | F 3.06 | Y 1.97 | R 3.89 | M 4.01 | C 2.9 | Q 2.53 | N 3.95 | D 4.07 | T 3.29 | A 3.92 | H 3.65 | I 2.93
T11: P 3.63 | F 3.73 | R 3.97 | D 3.75 | Y 3.31 | N 4.01 | L 4.29 | V 3.74 | E 4.71 | S 3.56 | C 3.41 | A 3.55 | Q 4.2
G20: V 3.2 | H 3.72 | N 3.74 | C 3.21 | S 3.69 | Q 2.42 | I 3.11 | L 4.19 | P 3.6 | D 4.05 | W 3.16 | Y 2.85 | T 3.51 | K 3.98 | A 3.44 | R 4.03
P14: V 3.25 | G 4.2 | I 2.39 | T 3.84 | K 3.77 | C 3.74 | N 4.12 | S 3.49 | Y 3.2 | D 3.87 | F 2.97 | W 2.59 | L 3.87 | R 4
E16: S 3.48 | I 3.9 | N 3.67 | V 3.61 | K 4.02 | Q 3.58 | T 3.79 | H 2.55 | F 2.44 | C 2.85 | P 2.73 | A 3.43 | L 2.9 | G 2.93 | W 2.5
N13: M 2.81 | E 4.1 | S 3.62 | Q 3.86 | I 3.47 | G 2.86 | H 2.77 | F 2.96 | K 4.03 | T 3.64
D2: M 2.17 | I 1.04 | F 1.89 | P 4.23 | S 4.75 | Y 2.8 | G 2.82 | Q 4.32 | T 1.93 | H 3.1 | E 4.18 | C 1.72 | R 3 | L 2.33 | K 3.24
L23: N 4.43 | H 4.73 | S 3.93 | R 4.29 | I 4.02 | A 3.81 | T 4.56 | E 4.17 | Q 5.13 | W 3.2 | V 4.3 | M 4.55 | Y 2.99
